# Results from PMC11098746 (2024).
# Target: FGFR4 ectodomain (Homo sapiens, UniProt P22455)
# Test: AVEXIS normalised luminescence
row,Binder,binding score
1,"28 (protein, bait human Fc-tagged dimer) GVLSFKFNTIKNLNVHLEIVMYGLFHIYNYKLNFKIVCDNGYYYIFNDCFPCPQGYYNNINIIKTNVDFINKCMKCDKNKATLIEKSSNKADCLCNFGYEYIKNPADPQEFICSPCTRGMYKNTISNKLCDGNACTGNFATSVIGAKNIIESTCFCKPGFYVTYDYRGIEFCKECLLHFYCPGNVIGIQKCPIHNEALQPEKRINFDSLHGCFCKKGYEPINILNINKAGTRDEHYYKLFHNTYADKFKDINPKHICMECDIGYYKDTISFQPCKKCPNQATNKKYGSTSLNDCNTCHSGYYKNINKACSTCLPNHFCVGDLLQKDLDKYSGDAVICPNNAVTKKPYTQNGAFKDCLCIEGYIKNYQESYNINDHCKLVPLNFYKDSISNDLGTPCPVNSITLNVGAKTINECLCNKGYFYNVKKQQCEECPIGFYCPKISSKNNIKKPIKCPKNSASIKKGMYISNNCQCNFGYTKYIHIDNNQALLNNNIIKYDNKKTNKMFYSFLSNNYYNYKNKINYINKAYNNRNLILLRNIQNKNAIYKKKKRKNVLCIRCPPMTYKGTISNDPCEACPLNSRTIESVNNAHIFFCLCNPGYYLHEQMCKPCSFSKLYCTGENIYIISQSLYETALQEIKNIYVSKNNDMYKMILMNLALYDYSQNVNINNNNNNNNNNNIHNNNIYNIYNSINHYNNDNNIFVNPIVNNKLKHHNNIIYPPYNLLNSQVDTIPFLKKKYGNNINIANILDLNSLYKEPIQNNNNLNTILKSFFHKDNENLIYVKYQNFVTCGKNTVIPLGVDSSYTFDDCKCKKGYYLKSKDINNAIKICEPCKTGTFKNYVGDDTFCLHCPPKSTSLEGSIYPTHCFCKGGFFYSKGYCLECLEGALCKGGLNKNVMQRMKFNMENILITEKDHIKPHSNKNYYLDKSVIDVVDVSEWKFIKCPIKGACLEKNKCHKSMNNYLCIECAKGYTNSFMTSLCVKCPNNIANM",0.857
2,"12 (protein, bait human Fc-tagged dimer) SDTFRVFEDFDVRRKNKIWCCNLNHEKSYFHNKAINTAYKNRVLKESILLNLDLDMKKYKDNIITRKKTPENIYKEIYENNYEMKYDEDIPNNMAEEKRDEKEVIEHLEIDEKNGKQYKSDINKPVSLSHLKQYKNIYVNNNNKINKKKSIDKHLPSYNLERKNNKYLNFLLVDNRNEAYTFMVPMKFYINHEMYNIADEEYNKLMEDNSVDVYLNNILVEYKYENFEIKEGEVDGEVEGEGEVEGEVEGEVKGKVVEGIENNMNEEEKYNKDNKDKENQINSNGQDENTEFQENDNNDAVIMKYT",0.891
3,"18 (protein, bait human Fc-tagged dimer) KENKNDNFLNGIYKLQNIWRNTALGELDLKKANIENAEGIIEKFNDANKADFNQHPHFRSKLSFLEHKNHKDMGIVTNHQNKDHKKNEYTSEEIIDMKPQLASQEMWRKGENFYMHGATNTNEQNDDEDLFESFHKNHNSNIKINSPCFDLQDKEMCSNNKECFYDDAYKACFQNCALVNEKKCSLYSECKHTPNGCQNEGYLNIQVFGSNLGGDVRACELFESEGSCYLMEKLFKKLSEEKKETSFNCVWISYKHELRSYDDENEPKENNDNIVALENKNKYMYMNNVESIHNNHHLENPYHEDIKHNKHKSFNYHVLSSSVPRQIAKNEKFLSLLQLNLKGKKKEKNKKKKKDDEDDDDIDEEDDDLDIEGKNNEFNADEEENSKDLKNNNIDDNEEDGTTDEDDLFNNKKKKKNNNNNNANNNNNKNKNKQNTNKKNNKIINEFDDDIDEVSEENLLNDEEKKQNKIKNKNINEANNIAENNEIEISSKDLTEQYEDKYNYDKKNNMGTNNNFNNANTFANNKNNLHNKYINHASHTQNEKDILKHNFYGKDNNGAYEIIKVETHICANLNEKPNPSTLLEGALIAENEAQLQKIKKKYKVTDNEICVRPTNSAYVSLIPDKKYYLLGEKIEFKCQEGYKIIGTTNIGVCTGRNIISPNIACESLTNFDDVEKDNIQKMNNIINS",1
4,"41 (protein, bait human Fc-tagged dimer) VYNVKTQKNEGIIIDKEGKENDNGNSDRNTPNNNNRLNRMTLNKEMYEKHNKMNNEEDNNKNINYDLSNLKDGMKKKHFGSNSAEDKTNKKSSINSVLEKYQHTKHEEKNLQNLNKNMMTHENDDSMKSIFISEESFESAKNVCQFIVMQNDYFKNFCNIASLVYDIEKLKKNNHKIYEEILSNSYENNNGAKFKLLKEINHAKVFKEMDNTNPKFSILFLYDKFCYGGIPLACSNLMKYDNVFDINEQSETTNKPDDNVNMEEMENYIINQAGMENGFEENVADLTQE",1.23
5,"52 (protein, bait human Fc-tagged dimer) AEEHEITHKTYFDITIDDKPLGRIVFGLYGKVAPKTVENFVSICKGTVVDGKMLHYTNSIFHRIIPNFMAQGGDITNFNGAGGLSIYGKKFEDENFKVNHAKRGLLSMANAGKNTNGAQFFILFIPTPWLDGRHVVFGEVVEGLDKLVHIEAVGTDSGEPLKRVLVKESGELPL",1.22
6,"17 (protein, bait human Fc-tagged dimer) ANIDKVNLARNFLFSYIQKNLYYTRSYFNVAQLFSTLQIFLDQFCYPGLGRCIPYINKCLCYDKSKMKPKTAKSCLNNCGVISLCSGYPYGPGYKIIPNEFINNRKVVTCVVSSLQNKLDRTCGYNKKLRFNENKIYCIPYDLLDMNLAGIYCVNNNKEKIFCKGFLRQIYTNLKEYEILDIAYHNFILNNPCNEHIYDDGTNYKGCQDTSISGRKCLHWNSLNMEKVLPYLYLHNYCRNPEGLSYIYCYVDNNGIITREYCKSRSNIIFNNIAYSREKYFHFDITMKNVADFRIKLDNKPCNQRYFVNNHRINEFTYDKRNYAYHNINGEIALTISFKNFAYNTYYDYKLYICACFKYYYTNDLVICSTDNYKVEIGSFLITKAYTDKDTNVFYLNRQYNLAFNINYEIIKNEIYIIKGDYAYECNHLRIIGNDNIHMITNMNILFNYYKNQNFQKIHPPLEPNKKYSYIYSYFDPILDLSSILRKNELFINPQSSNIIKGYQNVDNLNNDGKTNSKSKFAKNKHMLQNGAP",0.943
7,"16 (protein, bait human Fc-tagged dimer) NNLDKNKNFIQYKNFKKNKAYKYKNNNNNIIIINSHSHSNSHSNSHSHSNSHSNSHSHSNSHSNSHSHSNSHSHSHSNSHSNSHSHSSTQNSLYHDTNQANFLKPTSFFLYKHHVYFNQKYKKDPNILNKLKVPRNHIFHINKCDLNYYIQNYEFFFFFPDYYEYSHLYIRLDKLFYFQRCGCDTNIKKTKKRNQNIFNNMLGMKEKDTYLQNEICDIYWNYLKDDNTYDKYNFAIINYIKNIIKKMYRYLYIYKVFVLKQFYRIVYYNQGIRNFYYMLFSYIYNKGSIIYNYNQMYFKKHRKKQTIIRSKRFMNEHIKEEDVDYNIVKDEKDKSIQSTEQKSYLKNNAIQYFQCFLDKAMENKNAENELDKWIDPQSKSCYCSEEFAEPCTSEDLVDINNINQIMDNAFCEYNNNDNNNNDNNKNNNNNINNIINIYDNNILGDNVKNIFVALSEYKILQCNDKEKKDIIKKEQLYNYCKYGLNIWDNKNMYDYLNCLNVISYNKKDDKTCIRKCENIKKLCNIVAQFYSFEVCKKYYENNKHTEDIYINNFKYFSDHCKYIDPTNRGLVLCKHKNVECVYSQWSEWSTCSKTCIENEYDTNSARTRTRILLNKFEVPSKSCSFIINEKNNLMDINFCSYLPFCNKNNDMKKKDDERIMPFVISIKEIEKLNTLKYLNNDDNDLLNENYKNYESVHKNNECKVTDMYQYEYAISYNEKNKACSCPNNQAPCYFKDIYNSESWKKSLHILCKHNPHINVITADYIIIDCNMAISIKKKEIAVNTYLAMTFNCHSDIFQYIFCAKNIQSIRTN",1.5
